# Measured values as given in patent publication US20230405070A1, “PLECTRANTHUS AMBOINICUS EXTRACT FOR USE IN INHIBITING IMMUNE RESPONSES” (Oneness Biotech Co., Ltd., priority 2022, published 2023).
# B1: GCSF: recombinant GCSF protein co-administrated with M1-polarizing cytokines (protein, UniProt P09919 31-207, looked up)
# Granulocyte …: TPLGPASSLPQSFLLKCLEQVRKIQGDGAALQEKLVSECATYKLCHPEELVLLGHSLGIPWAPLSSCPSQALQLAGCLSQLHSGLFLYQGLLQALEGISPELGPTLDTLQLDVADFATTIWQQMEELGMAPALQPTQGAMPAFASAFQRRAGGVLVASHLQSFLEVSYRVLRHLAQP
# Test system: M1 macrophages
# Experiment: Recombinant GCSF / CXCL3 co-administered with M1-polarizing cytokines
# Assay type: cell-based, human
# Method: For detection of M1 and M2 macrophage markers, cultured cells were suspended then blocked by 20 μL/10^4 of FcR Blocking Reagent (Miltenyi Biotec, Cologne, Germany). Antibodies listed in Table 1 and isotype signal for normalization were listed in Table 3 were used at 5 μL per 10^5 cells.
# Cell lysates for immunoblotting were prepared using an M-PER mammalian protein extraction kit containing protease and phosphatase inhibitor cocktail (Thermo-Fisher Scientific). Immunoblotting using the indicated antibodies (listed in Table 1) was performed as described previously (Lu et al., J Immunother Cancer, 2020).
# Next, experiments were performed to analyze whether the genes altered by ON101 treatment in diabetic wounds could be produced by ADPCs upon ON101 treatment and focused on candidate genes detected in wound tissues in ON101-treated db/db mice (FIGS. 4E-4F). […] To test whether GCSF and CXCL3 might be involved in the marker switch between M1 and M2 macrophages, recombinant GCSF and CXCL3 proteins, with or without their neutralizing antibodies, were co-administrated with M1-polarizing cytokines. […] Both GCSF- and CXCL3-mediated inductions of M2a/c markers were abolished by the corresponding neutralizing antibodies (FIGS. 8G-8H). In addition, both GCSF and CXCL3 treatments activated Stat3 signaling pathways, whereas GCSF activated Akt phosphorylation, which was again abolished by their corresponding antibodies (FIG. 8I).
# [1] = recombinant protein with M1-polarizing cytokines, 48 h
Molecule,Stat3 signaling (immunoblot),CD163 expression [1],Akt phosphorylation (immunoblot),CD206 expression [1]
CXCL3: recombinant CXCL3 protein co-administrated with M1-polarizing cytokines,activated,only induced CD163 expression,–,–
B1,activated,concentration-dependent increase,activated,concentration-dependent increase
